Drawing on paper PMC9221696, this text covers screen value for six variants.

To fix the notation:
B1: wild-type Fas receptor (Fas/CD95) tagged with mCerulean3 or mVenus [human] / Cerulean3-tagged FADD containing only the death domain (FADD DD) [human] (parent)
chain 1: LCAAFNVICDNVGKDWRRLARQLKVSDTKIDSIEDRYPRNLTERVRESLRIWKNTEKENATVAHLVGALRSCQMNLVADLVQEVQ
chain 2: QVTDINSKGLELRKTVTTVETQNLEGLHHDGQFCHKPCPPGERKARDCTVNGDEPDCVPCQEGKEYTDKAHFSSKCRRCRLCDEGHGLEVEINCTRTQNTKCRCKPNFFCNSTVCEHCDPCTKCEHGIIKECTLTSNTKCKEEGSRSNLGWLCLLLLPIPLIVWVKRKEVQKTCRKHRKENQGSHESPTLNPETVAINLSDVDLSKYITTIAGVMTLSQVKGFVRKNGVNEAKIDEIKNDNVQDTAEQKVQLLRNWHQLHGKKEAYDTLIKDLKKANLCTLAEKIQTIILKDITSDSENSNFRNEIQSLV
B2: wild-type Fas receptor (Fas/CD95) tagged with mCerulean3 or mVenus [human] / itself (parent)
chain: B1 chain 2

Test [1] covers variants of B1. In words: flow-cytometric FRET between Fas and FADD DD in live cells. The note with it: with Cerulean3-tagged FADD containing only the death domain (FADD DD) [human], RapoC2 (Fas-deficient Jurkat) cells, read off a plot.
The variants in test [2] derive from B2. In words: flow-cytometric FRET (mCerulean3/mVenus) in live cells. The note with it: with itself, RapoC2 (Fas-deficient Jurkat) cells, 24 h post-transfection, read off a plot.

On to chain 2 QVTDINSKGLELRKTVTTVETQNLEGLHHDGQFCHKPCPPGERKARDCTVNGDEPDCVPCQEGKEYTDKAHFSSKCRRCRLCDEGHGLEVEINCTRTQNTKCRCKPNFFCNSTVCEHCDPCTKCEHGIIKECTLTSNTKCKEEGSRSNLGWLCLLLLPIPLIVWVKRKEVQKTCRKHRKENQGSHESPTLNPETVAINLSDVDLSKYITTIAGVMTLSQVKGFVRKNGVNEAKIDKIKNDNVQDTAEQKVQLLRNWHQLHGKKEAYDTLIKDLKKANLCTLAEKIQTIILKDITSDSENSNFRNEIQSLV [chain 2 E236K], for which the screen value in test [1] (FasL-LZ 5 min, parent: 1.3) worked out at 1.1; in test [1] (FasL-LZ 15 min, parent: 1.5) it was 1.1; in test [1] (FasL-LZ 30 min, parent: 1.7), 1.1; in test [1] (FasL-LZ 60 min, parent: 1.9) it was 1.1; in test [1] (FasL-LZ 120 min, parent: 1.9) it was 1.1.
Consider chain 2 QVTDINSKGLELRKTVTTVETQNLEGLHHDGQFCHKPCPPGERKARDCTVNGDEPDCVPCQEGKEYTDKAHFSSKCRRCRLCDEGHGLEVEINCTRTQNTKCRCKPNFFCNSTVCEHCDPCTKCEHGIIKECTLTSNTKCKEEGSRSNLGWLCLLLLPIPLIVWVKRKEVQKTVRKHRKENQGSHESPTLNPETVAINLSDVDLSKYITTIAGVMTLSQVKGFVRKNGVNEAKIDEIKNDNVQDTAEQKVQLLRNWHQLHGKKEAYDTLIKDLKKANLCTLAEKIQTIILKDITSDSENSNFRNEIQSLV [chain 2 C174V], for which the screen value in test [1] (FasL-LZ 5 min, parent: 1.3) came out at 1.4; in test [1] (FasL-LZ 15 min, parent: 1.5), 1.6; in test [1] (FasL-LZ 30 min, parent: 1.7), 1.8; in test [1] (FasL-LZ 60 min, parent: 1.9), 1.9; in test [1] (FasL-LZ 120 min, parent: 1.9), 2.
Take chain 2 QVTDINSKGLELRKTVTTVETQNLEGLHHDGQFCHKPCPPGERKARDCTVNGDEPDCVPCQEGKEYTDKAHFSSKCRRCRLCDEGHGLEVEINCTRTQNTKCRCKPNFFCNSTVCEHCDPCTKCEHGIIKECTLTSNTKCKEEGSRSNLGWLCLLLLPIPLIVWVKRKEVQKTCRKHRKENQGSHESPTLNPETVAINLSDVDLSKYITTIAGVMTLSQVKGFVRKNGVNEDKIDEIKNDNVQDTAEQKVQLLRNWHQLHGKKEAYDTLIKDLKKANLCTLAEKIQTIILKDITSDSENSNFRNEIQSLV [chain 2 A232D]: the screen value in test [1] (FasL-LZ 5 min, parent: 1.3) worked out at 1.1; in test [1] (FasL-LZ 15 min, parent: 1.5), 1.1; in test [1] (FasL-LZ 30 min, parent: 1.7), 1.1; in test [1] (FasL-LZ 60 min, parent: 1.9), 1.1; in test [1] (FasL-LZ 120 min, parent: 1.9), 1.1.
Consider QVTDINSKGLELRKTVTTVETQNLEGLHHDGQFCHKPCPPGERKARDCTVNGDEPDCVPCQEGKEYTDKAHFSSKCRRCRLCDEGHGLEVEINCTRTQNTKCRCKPNFFCNSTVCEHCDPCTKCEHGIIKECTLTSNTKCKEEGSRSNLGWLCLLLLPIPLIVWVKRKEVQKTCRKHRKENQGSHESPTLNPETVAINLSDVDLSKYITTIAGVMTLSQVKGFVRKNGVNEAKIDKIKNDNVQDTAEQKVQLLRNWHQLHGKKEAYDTLIKDLKKANLCTLAEKIQTIILKDITSDSENSNFRNEIQSLV [chain 1 E236K], for which the screen value in test [2] (FasL-LZ 5 min, parent: 1.5) came to 1.3; in test [2] (FasL-LZ 15 min, parent: 1.9), 1.5; in test [2] (FasL-LZ 30 min, parent: 2), 1.6; in test [2] (FasL-LZ 60 min, parent: 1.9), 1.6; in test [2] (FasL-LZ 120 min, parent: 1.9), 1.6.
On to QVTDINSKGLELRKTVTTVETQNLEGLHHDGQFCHKPCPPGERKARDCTVNGDEPDCVPCQEGKEYTDKAHFSSKCRRCRLCDEGHGLEVEINCTRTQNTKCRCKPNFFCNSTVCEHCDPCTKCEHGIIKECTLTSNTKCKEEGSRSNLGWLCLLLLPIPLIVWVKRKEVQKTCRKHRKENQGSHESPTLNPETVAINLSDVDLSKYITTIAGVMTLSQVKGFVRKNGVNEDKIDEIKNDNVQDTAEQKVQLLRNWHQLHGKKEAYDTLIKDLKKANLCTLAEKIQTIILKDITSDSENSNFRNEIQSLV [chain 1 A232D], for which the screen value in test [2] (FasL-LZ 5 min, parent: 1.5) was 1.3; in test [2] (FasL-LZ 15 min, parent: 1.9) it was 1.5; in test [2] (FasL-LZ 30 min, parent: 2) it was 1.6; in test [2] (FasL-LZ 60 min, parent: 1.9), 1.6; in test [2] (FasL-LZ 120 min, parent: 1.9) it was 1.6.
Turning to QVTDINSKGLELRKTVTTVETQNLEGLHHDGQFCHKPCPPGERKARDCTVNGDEPDCVPCQEGKEYTDKAHFSSKCRRCRLCDEGHGLEVEINCTRTQNTKCRCKPNFFCNSTVCEHCDPCTKCEHGIIKECTLTSNTKCKEEGSRSNLGWLCLLLLPIPLIVWVKRKEVQKTVRKHRKENQGSHESPTLNPETVAINLSDVDLSKYITTIAGVMTLSQVKGFVRKNGVNEAKIDEIKNDNVQDTAEQKVQLLRNWHQLHGKKEAYDTLIKDLKKANLCTLAEKIQTIILKDITSDSENSNFRNEIQSLV [chain 1 C174V], the screen value turned out to be 1.5 in test [2] (FasL-LZ 5 min, parent: 1.5); 1.9 in test [2] (FasL-LZ 15 min, parent: 1.9); 2.1 in test [2] (FasL-LZ 30 min, parent: 2).
